Eight molecules from article PMC11933844, “Autosuppression of MdNAC18.1 endowed by a 61‐bp promoter fragment duplication delays maturity date in apple” can be followed below.

Positions count from the first letter of the chain named.

The chains are these.
B1: MdACO1-like promoter probe NACBS1 (dsDNA)
DNA 1: TCAAGTACCATAACTACACGTAACTTGCAAAGTTCC
DNA 2: GGAACTTTGCAAGTTACGTGTAGTTATGGTACTTGA
B2: MdMYC2 promoter probe NACBS1 (dsDNA)
DNA 1: TCTGGGATCCTGGTTTCACGGGTTTTCGAGGTTTTC
DNA 2: GAAAACCTCGAAAACCCGTGAAACCAGGATCCCAGA
B3: MdNAC18.1 P promoter probe mutant (dsDNA)
DNA 1: GACATACAATGTTCTGATTCGTATGAGATAACTTAA
DNA 2: TTAAGTTATCTCATACGAATCAGAACATTGTATGTC
B4: MdACS1 promoter probe mutant (dsDNA)
DNA 1: GTACACTTATAATAAAAAAACAAGTTTGTAGGTAAT
DNA 2: ATTACCTACAAACTTGTTTTTTTATTATAAGTGTAC
B5: MdACO1-like promoter probe mutant (dsDNA)
DNA 1: B1 DNA 1 with T15A, C17A, C19A, G20A
DNA 2: B1 DNA 2 with C17T, G18T, G20T, A22T
B6: MdACS1 promoter probe NACBS5 (dsDNA)
DNA 1: GTACACTTATAATCCCCACGCAAGTTTGTAGGTAAT
DNA 2: ATTACCTACAAACTTGCGTGGGGATTATAAGTGTAC
B7: MdNAC72 promoter probe NACBS1 (dsDNA)
DNA 1: TATTGACCCACATTTGCACGTAGCCTTGTAAACTTG
DNA 2: CAAGTTTACAAGGCTACGTGCAAATGTGGGTCAATA
B8: MdNAC18.1 P promoter probe (CTAAC) (dsDNA)
DNA 1: GACATACAATGTTCTGATTCGTATTCTAACACTTAA
DNA 2: TTAAGTGTTAGAATACGAATCAGAACATTGTATGTC

Sequence of MdNAC18.1 (A0A498K6T8 entry or part of it): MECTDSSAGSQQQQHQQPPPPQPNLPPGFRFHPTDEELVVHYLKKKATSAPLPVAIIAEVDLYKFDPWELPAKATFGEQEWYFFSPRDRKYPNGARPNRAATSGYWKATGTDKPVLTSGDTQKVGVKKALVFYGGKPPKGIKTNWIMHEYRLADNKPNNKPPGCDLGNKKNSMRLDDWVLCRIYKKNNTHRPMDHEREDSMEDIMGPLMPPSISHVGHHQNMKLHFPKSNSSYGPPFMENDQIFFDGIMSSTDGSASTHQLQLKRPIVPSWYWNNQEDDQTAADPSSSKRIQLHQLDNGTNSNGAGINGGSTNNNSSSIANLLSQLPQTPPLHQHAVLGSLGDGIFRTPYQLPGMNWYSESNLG

One data set concerns the target T1, MdNAC72 (UniProt A0A498KB81 69-407).
T1 sequence: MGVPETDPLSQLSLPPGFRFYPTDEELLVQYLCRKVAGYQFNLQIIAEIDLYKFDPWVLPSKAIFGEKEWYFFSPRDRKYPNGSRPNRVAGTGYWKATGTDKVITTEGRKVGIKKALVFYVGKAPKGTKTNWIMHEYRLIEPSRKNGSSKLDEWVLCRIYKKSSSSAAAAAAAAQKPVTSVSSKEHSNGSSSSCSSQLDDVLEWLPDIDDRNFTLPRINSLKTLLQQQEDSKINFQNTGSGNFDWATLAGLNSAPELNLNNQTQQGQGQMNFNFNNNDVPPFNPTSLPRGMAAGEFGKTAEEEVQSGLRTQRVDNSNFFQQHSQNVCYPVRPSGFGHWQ
The experiment in a line: EMSA; Beyotime Chemiluminescent EMSA Kit GS009; buffer, salt, pH and temperature not stated. To be noted: protein: recombinant; tags: His (pET32A); chain copies: 2; label: 3' biotin; blunt.
As for B1, the binding result is on record as “binds”.

The next data set addresses MdNAC18.1 (UniProt A0A498K6T8 1-364). The description is as above. As to conditions: protein: recombinant; tags: His (pET32A); chain copies: 2; blunt.
As to B2, the binding result is recorded as “binds”.

In the case of B3, the binding result is on record as “no binding”.

B4: the binding result was “no binding”.

Turning to B5, the binding result was “no binding”.

Staying with this data set, now noted: protein: recombinant; tags: His (pET32A); chain copies: 2; label: 3' biotin; blunt.
For B6, the binding result is reported as “binds”.

As to B1, the binding result is “binds”.

As to B7, the binding result was “binds”.

Turning to B8, the binding result is on record as “binds”.
